Legend:
C57Bl/6J mice [1] = assay: Mouse Frailty Index in aged mice treated from 55 to 110 weeks of age; assay type: in vivo; conditions: mice aged 110 weeks; 40 mg/kg IP every 3 weeks from age 55 weeks; vs isotype control IgG
Protocol: C57Bl/6J mice aged 46 weeks were obtained from the Jackson Laboratory, and randomised on a 1:1 basis to receive either X203 or an isotype control IgG antibody.
(§1) From age 55 weeks (human equivalent of ˜45 years old (i.e. middle age)) to age 110 weeks (human equivalent of ˜75 years old), mice were administered with 40 mg/kg of either X203 or isotype-matched control IgG via intra-peritoneal injection every 3 weeks.
At age 110 weeks, frailty was assessed using the Mouse Frailty Index described in Rizzo et al. Curr Protoc Mouse Biol. (2018) 8(2):e45, which is hereby incorporated by reference in its entirety. In this protocol, mice are individually observed and evaluated for the absence or presence and severity of 27 different characteristics each scored as 0, 0.5, or 1 based on level of severity. A frailty index score is calculated as the cumulative score of all measures. As a separate measurement of frailty, core body temperature was recorded, as core body temperature is known to decrease with increasing frailty in mice (Reynolds et al., Mechanisms of Ageing and Development (1985) 30(2):143-52). Data were analysed by 2-way ANOVA.
End-point frailty scoring was performed 2 days prior to sacrifice using the accepted frailty scoring system (Sukoff Rizzo et al. 2018, Current Protocols in Mouse Biology 8 (2): e45.)

C57Bl/6J mice [2] = assay: Gastrocnemius and soleus muscle weights; assay type: in vivo, mouse; conditions: age 110 weeks; vs IgG control
Protocol: as §1
Mice also underwent body-composition assessment via echo MRI both at baseline (age 55 weeks) and at 108-109 weeks. This enabled calculation of the change in body fat mass and lean (muscle) mass in the X203 and IgG control treatment groups. Gastrocnemius and soleus muscles were also harvested from the mice at age 110 weeks and their weights were recorded. Data were analysed by 2-way ANOVA.

AML12 = assay: Senescence reversal experiment, qPCR at day 10; assay type: cell-based, mouse; conditions: 2 μg/ml for 72 hours after 7 days senescence induction; vs IgG
Protocol: FIG. 25. (25A) Schematic of senescence reversal experiment for data shown in B-D. Senescent AML12 were generated for 7 days as described above. IgG/X203/X209 (2 μg/ml) was added into the cultures at the end of senescence induction period for 72 hours; cells were harvested at day 10 for RNA extraction and subsequent qPCR experiments. Relative mRNA expression of (25B) Cdkn1a (p21), (25C) Il1β, and (25D) Il11.
Briefly, senescent AML12 were generated for 7 days as described above, but IgG/X203/X209 (2 μg/ml) was added into the cultures at the end of senescence induction period for 72 hours.
Senescent AML12 were generated by treating the cells with a sub-lethal concentration of H2O2 (0.75 mM) for 1 hour, followed by 23 hours recovery per day, for 7 days as described (Tripathi, Yen, and Singh 2020, STAR Protocols 1 (2): 100064). For prevention study, AML12 cells were treated with 2 ug/ml of either IgG or X209 during the recovery period of the senescence induction stage (from day 1 to day 7); cells were harvested for total RNA collection at day 10. For reversal study, senescence was first induced for seven days followed by 2 ug/ml of IgG, X203, or X209 treatment for 3 days; cells were harvested for total RNA collection at day 10.
Total RNA was extracted from AML12 or snap-frozen tissues using Trizol (Invitrogen) and RNeasy Mini Kit (Qiagen). […] using iScript cDNA Synthesis Kit (Biorad). Gene expression analysis was performed on duplicate samples with either TaqMan (Applied Biosystems) for Il11 (Mm00434162) or fast SYBR green (Qiagen) technology using StepOnePlus™ (Applied Biosystem) for Ccl2, Ccl5, Gapdh, Il1β, Il6, Il8, p16, p21, Tnfα, over 40 cycles. Expression data were normalized to GAPDH mRNA expression and fold change was calculated using 2^−ΔΔct method.

C57Bl/6J mice [3] = assay: Serum IL-6 levels of old mice (ELISA); assay type: in vivo, mouse; conditions: old (110 week-old) male and female mice; vs IgG isotype control
Protocol: FIG. 51. A neutralizing IL-11 antibody reduces the levels of IL-6 protein in the serum of old mice. Graphs showing the effects of treatment with anti-IL11 (X203) or IgG isotype control on serum IL-6 levels levels of old (110 week-old) male and female mice. Dotted lines indicate the mean serum IL-6 levels of 12 week-old control male (0.159 μg/ml) and female (0.236 μg/ml) mice. Data were analyzed by 2-way ANOVA.
IL-6 is strongly linked with ageing (Maggio et al. 2006, J Gerontol A Biol Sci Med Sci. 61(6): 575-584; Ershler and Keller 2000, Annual Review of Medicine 51: 245-70).
Male and female C57Bl/6J mice aged 46 weeks were purchased from the Jackson Laboratory. Mice were randomised on a 1:1 basis to receive either 40 mg/kg of X203 or an isotype control IgG antibody (11E10), every 3 weeks (IP), starting from 55 weeks of age. Mice were sacrificed at 110 weeks of age for blood and tissues collection. 12 weeks old male and female C57Bl/6J mice that were used as control were purchased from Invivos (Singapore).
The levels of IL6 in mouse serum were quantified using Mouse IL-6 Quantikine ELISA Kit (M6000B; R&D Systems).

C57Bl/6J mice [4] = assay: Grip strength using a grip strength meter; assay type: in vivo, mouse; conditions: at 110 weeks; vs IgG control antibody
Protocol: C57Bl/6J mice are randomised to receive either X203 or IgG control antibody at a dose of 40m/kg via IP injection every 3 weeks from age 55 weeks to age 110 weeks.
At 110 weeks, mice are analysed for grip strength using a grip strength meter. Reduced grip strength is a robust marker of ageing-associated frailty in mice (see Fischer et al., Aging (2016) 8: 2370-2391, hereby incorporated by reference in its entirety).
Mice grip a wire mesh attached to the meter with both forelimbs, and are then gently pulled by the tail in a horizontal plane parallel to the base plate of the meter. Grip strength is recorded as the maximum force registered.

B1: X203: mouse anti-mouse IL-11 IgG antagonist antibody; VH SEQ ID NO:22, VL SEQ ID NO:23 (antibody, V domains shown)
VH: EVQLQQSGPELVKPGASVKIPCKASGYTFTDYNMDWVKQSHGKSLEWIGDINPHNGGPIYNQKFTGKATLTVDKSSSTAYMELRSLTSEDTAVYYCARGELGHWYFDVWGTGTTVTVSS
VL: DIVLTQSPASLAVSLGQRATISCRASKSVSTSGYSYIHWYQQKPGQPPKLLIYLASNLDSGVPARFSGSGSGTDFTLNIHPVEEEDAATYYCQHSRDLPPTFGGGTKLEIK
C57Bl/6J mice [1]
  frailty index: significant reduction
C57Bl/6J mice [2]
  weight of gastrocnemius muscle as a proportion of body weight: greater
  weight of soleus muscle as a proportion of body weight: greater
AML12
  inflammation marker IL-1 b: significantly reduce
  inflammation marker IL-11: significantly reduce
  senescence marker p21: significantly reduce
C57Bl/6J mice [3]
  levels of IL-6 protein in the serum: significantly reduces
C57Bl/6J mice [4]
  grip strength: greater
